Measurements taken from paper PMC9482650, “Quantitative fragmentomics allow affinity mapping of interactomes” (Nature Communications, 2022).
Residue numbers refer to the chain shown, from its start.

T1: APBA2_1, Q99767
T1 sequence (Q99767 563-664, limits assumed, looked up): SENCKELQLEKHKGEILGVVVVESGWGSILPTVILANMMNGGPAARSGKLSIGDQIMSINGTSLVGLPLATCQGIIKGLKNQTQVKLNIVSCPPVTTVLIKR

T2: GRIP1_2, Q9Y3R0
T2 sequence (Q9Y3R0 145-248, limits assumed, looked up): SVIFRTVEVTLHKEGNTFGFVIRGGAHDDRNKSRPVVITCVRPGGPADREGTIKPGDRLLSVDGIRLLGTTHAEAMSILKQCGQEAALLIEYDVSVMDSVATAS

T3: PCLO, Q9Y6V0
T3 sequence (Q9Y6V0 4491-4600, limits assumed, looked up): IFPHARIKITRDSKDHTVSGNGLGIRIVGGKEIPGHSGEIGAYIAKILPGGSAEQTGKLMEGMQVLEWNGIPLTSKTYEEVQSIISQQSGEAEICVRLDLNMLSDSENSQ

T4: SNTG1, Q9NSN8
T4 sequence (Q9NSN8 52-150, limits assumed, looked up): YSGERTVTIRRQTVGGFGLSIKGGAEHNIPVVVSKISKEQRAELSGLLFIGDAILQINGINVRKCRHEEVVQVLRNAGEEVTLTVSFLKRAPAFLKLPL

T5: FRMPD1, Q5SYB0
T5 sequence (Q5SYB0 52-145, limits assumed, looked up): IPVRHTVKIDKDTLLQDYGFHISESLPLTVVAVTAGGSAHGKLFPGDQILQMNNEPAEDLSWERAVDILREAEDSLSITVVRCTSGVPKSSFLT

T6: DLG3_2, Q92796
T6 sequence (Q92796 221-321, limits assumed, looked up): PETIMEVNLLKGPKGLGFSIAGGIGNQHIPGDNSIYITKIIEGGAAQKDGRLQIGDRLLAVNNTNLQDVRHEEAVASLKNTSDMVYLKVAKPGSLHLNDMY

T7: DVL3, Q92997
T7 sequence (Q92997 244-331, limits assumed, looked up): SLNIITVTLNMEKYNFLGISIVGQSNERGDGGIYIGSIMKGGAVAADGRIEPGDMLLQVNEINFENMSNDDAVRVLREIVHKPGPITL

T8: PDZRN3_1, Q9UPQ7
T8 sequence (Q9UPQ7 244-349, limits assumed, looked up): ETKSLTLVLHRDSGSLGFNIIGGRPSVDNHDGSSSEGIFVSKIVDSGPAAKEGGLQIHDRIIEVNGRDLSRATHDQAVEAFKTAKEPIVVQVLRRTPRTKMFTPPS

T9: MPP6, Q9NZW5
T9 sequence (Q9NZW5 125-219, limits assumed, looked up): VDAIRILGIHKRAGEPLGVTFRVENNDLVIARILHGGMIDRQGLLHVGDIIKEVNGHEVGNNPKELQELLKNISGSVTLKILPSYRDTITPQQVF

T10: DLG3_1, Q92796
T10 sequence (Q92796 125-227, limits assumed, looked up): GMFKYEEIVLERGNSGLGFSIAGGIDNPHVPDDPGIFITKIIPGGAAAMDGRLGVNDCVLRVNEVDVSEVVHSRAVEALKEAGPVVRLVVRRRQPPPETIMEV

T11: LIN7B, Q9HAP6
T11 sequence (Q9HAP6 88-185, limits assumed, looked up): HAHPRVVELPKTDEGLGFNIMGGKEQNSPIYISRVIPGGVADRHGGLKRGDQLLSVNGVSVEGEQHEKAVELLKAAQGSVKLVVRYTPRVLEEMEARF

T12: LIN7A, O14910
T12 sequence (O14910 103-200, limits assumed, looked up): T11 sequence (Q9HAP6 88-185, limits assumed, looked up) with A2S, I20V, V35I, D42E, Q65H, Q77K, G78D, R89K


What follows are binders tested against T1, APBA2_1, Q99767 (assay: holdup assay). Details: plain residues with an end cap or a label only (N-terminal biotin on a linker: ado-ado).
Parameters: key: below the threshold = too weak to quantify, mostly under pKd 3.1 to 4

Binder	pKd
TNSRHGETTV [FZD2, Q14332]	below the threshold
PPGKHLVTEV [KCNA7, Q96RP8]	below the threshold

What follows are binders tested against HTRA1, Q92743 (assay: holdup assay). Details: plain residues with an end cap or a label only (N-terminal biotin on a linker: ado-ado).
Chain of HTRA1, Q92743 (Q92743 360-477): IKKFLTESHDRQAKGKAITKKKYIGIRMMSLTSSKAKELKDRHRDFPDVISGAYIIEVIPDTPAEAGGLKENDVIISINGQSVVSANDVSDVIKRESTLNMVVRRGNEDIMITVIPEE
Parameters: key: below the threshold = too weak to quantify, mostly under pKd 3.1 to 4

Binder	pKd
TNSRHGETTV [FZD2, Q14332]	4.41
PPGKHLVTEV [KCNA7, Q96RP8]	4.84

These binders were tested against GORASP2, Q9H8Y8 (assay: holdup assay). Details: plain residues with an end cap or a label only (N-terminal biotin on a linker: ado-ado).
Parameters: key: below the threshold = too weak to quantify, mostly under pKd 3.1 to 4

Binder	pKd
TNSRHGETTV [FZD2, Q14332]	4.19
PPGKHLVTEV [KCNA7, Q96RP8]	4.39

Each binder was assayed against T2, GRIP1_2, Q9Y3R0 (assay: holdup assay). Details: plain residues with an end cap or a label only (N-terminal biotin on a linker: ado-ado).
Parameters: key: below the threshold = too weak to quantify, mostly under pKd 3.1 to 4

Binder	pKd
TNSRHGETTV [FZD2, Q14332]	below the threshold
PPGKHLVTEV [KCNA7, Q96RP8]	below the threshold

The binders below were run against T3, PCLO, Q9Y6V0 (assay: holdup assay). Details: plain residues with an end cap or a label only (N-terminal biotin on a linker: ado-ado).
Parameters: key: below the threshold = too weak to quantify, mostly under pKd 3.1 to 4

Binder	pKd
TNSRHGETTV [FZD2, Q14332]	below the threshold
PPGKHLVTEV [KCNA7, Q96RP8]	below the threshold

What follows are binders tested against SCRIB_3, Q14160 (assay: holdup assay). Details: plain residues with an end cap or a label only (N-terminal biotin on a linker: ado-ado).
Chain of SCRIB_3, Q14160 (Q14160 999-1103): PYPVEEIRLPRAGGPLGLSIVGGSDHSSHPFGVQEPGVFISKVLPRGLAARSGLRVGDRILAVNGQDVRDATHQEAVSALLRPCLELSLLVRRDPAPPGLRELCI
Parameters: key: below the threshold = too weak to quantify, mostly under pKd 3.1 to 4

Binder	pKd
TNSRHGETTV [FZD2, Q14332]	4.62
PPGKHLVTEV [KCNA7, Q96RP8]	4.56

These binders were tested against HTRA2, O43464 (assay: holdup assay). Details: plain residues with an end cap or a label only (N-terminal biotin on a linker: ado-ado).
Chain of HTRA2, O43464 (O43464 355-458): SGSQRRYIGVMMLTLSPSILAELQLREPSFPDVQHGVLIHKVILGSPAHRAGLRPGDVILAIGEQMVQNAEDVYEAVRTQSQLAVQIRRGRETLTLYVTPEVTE
Parameters: key: below the threshold = too weak to quantify, mostly under pKd 3.1 to 4

Binder	pKd
TNSRHGETTV [FZD2, Q14332]	below the threshold
PPGKHLVTEV [KCNA7, Q96RP8]	below the threshold

The binders below were run against Inadl_8, Q8NI35 (assay: holdup assay). Details: plain residues with an end cap or a label only (N-terminal biotin on a linker: ado-ado).
Chain of Inadl_8, Q8NI35 (Q8NI35 1425-1530): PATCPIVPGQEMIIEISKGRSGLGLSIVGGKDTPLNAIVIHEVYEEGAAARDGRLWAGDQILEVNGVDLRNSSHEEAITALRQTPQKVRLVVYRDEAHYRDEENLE
Parameters: key: below the threshold = too weak to quantify, mostly under pKd 3.1 to 4

Binder	pKd
TNSRHGETTV [FZD2, Q14332]	3.57
PPGKHLVTEV [KCNA7, Q96RP8]	3.98

What follows are binders tested against T4, SNTG1, Q9NSN8 (assay: holdup assay). Details: plain residues with an end cap or a label only (N-terminal biotin on a linker: ado-ado).
Parameters: key: below the threshold = too weak to quantify, mostly under pKd 3.1 to 4

Binder	pKd
TNSRHGETTV [FZD2, Q14332]	4.27
PPGKHLVTEV [KCNA7, Q96RP8]	4.35

The binders below were run against T5, FRMPD1, Q5SYB0 (assay: holdup assay). Details: plain residues with an end cap or a label only (N-terminal biotin on a linker: ado-ado).
Parameters: key: below the threshold = too weak to quantify, mostly under pKd 3.1 to 4

Binder	pKd
TNSRHGETTV [FZD2, Q14332]	below the threshold
PPGKHLVTEV [KCNA7, Q96RP8]	below the threshold

Each binder was assayed against T6, DLG3_2, Q92796 (assay: holdup assay). Details: plain residues with an end cap or a label only (N-terminal biotin on a linker: ado-ado).
Parameters: key: below the threshold = too weak to quantify, mostly under pKd 3.1 to 4

Binder	pKd
TNSRHGETTV [FZD2, Q14332]	4.72
PPGKHLVTEV [KCNA7, Q96RP8]	5.19

These binders were tested against IL16_4, Q14005 (assay: holdup assay). Details: plain residues with an end cap or a label only (N-terminal biotin on a linker: ado-ado).
Chain of IL16_4, Q14005 (Q14005 1229-1329): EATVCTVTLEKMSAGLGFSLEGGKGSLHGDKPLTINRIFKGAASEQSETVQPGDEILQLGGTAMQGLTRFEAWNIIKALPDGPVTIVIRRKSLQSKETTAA
Parameters: key: below the threshold = too weak to quantify, mostly under pKd 3.1 to 4

Binder	pKd
TNSRHGETTV [FZD2, Q14332]	below the threshold
PPGKHLVTEV [KCNA7, Q96RP8]	below the threshold

The binders below were run against NHERF4_1, Q86UT5-2 (assay: holdup assay). Details: plain residues with an end cap or a label only (N-terminal biotin on a linker: ado-ado).
Chain of NHERF4_1, Q86UT5-2 (Q86UT5 other isoform, or with tags, fused parts or gaps): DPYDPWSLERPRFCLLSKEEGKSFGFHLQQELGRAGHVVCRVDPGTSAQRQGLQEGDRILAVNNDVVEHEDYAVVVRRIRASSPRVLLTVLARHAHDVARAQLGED
Parameters: key: below the threshold = too weak to quantify, mostly under pKd 3.1 to 4

Binder	pKd
TNSRHGETTV [FZD2, Q14332]	below the threshold
PPGKHLVTEV [KCNA7, Q96RP8]	3.94

These binders were tested against LNX1_3, Q8TBB1 (assay: holdup assay). Details: plain residues with an end cap or a label only (N-terminal biotin on a linker: ado-ado).
Chain of LNX1_3, Q8TBB1 (Q8TBB1 500-596): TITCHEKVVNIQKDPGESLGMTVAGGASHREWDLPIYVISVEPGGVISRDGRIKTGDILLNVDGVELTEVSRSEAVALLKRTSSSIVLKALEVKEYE
Parameters: key: below the threshold = too weak to quantify, mostly under pKd 3.1 to 4

Binder	pKd
TNSRHGETTV [FZD2, Q14332]	below the threshold
PPGKHLVTEV [KCNA7, Q96RP8]	below the threshold

The binders below were run against PDLIM1, O00151 (assay: holdup assay). Details: plain residues with an end cap or a label only (N-terminal biotin on a linker: ado-ado).
Chain of PDLIM1, O00151 (O00151 1-87): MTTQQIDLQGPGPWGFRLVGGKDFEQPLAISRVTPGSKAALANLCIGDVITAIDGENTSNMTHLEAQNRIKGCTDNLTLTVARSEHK
Parameters: key: below the threshold = too weak to quantify, mostly under pKd 3.1 to 4

Binder	pKd
TNSRHGETTV [FZD2, Q14332]	below the threshold
PPGKHLVTEV [KCNA7, Q96RP8]	below the threshold

What follows are binders tested against T7, DVL3, Q92997 (assay: holdup assay). Details: plain residues with an end cap or a label only (N-terminal biotin on a linker: ado-ado).
Parameters: key: below the threshold = too weak to quantify, mostly under pKd 3.1 to 4

Binder	pKd
TNSRHGETTV [FZD2, Q14332]	below the threshold
PPGKHLVTEV [KCNA7, Q96RP8]	below the threshold

These binders were tested against T8, PDZRN3_1, Q9UPQ7 (assay: holdup assay). Details: plain residues with an end cap or a label only (N-terminal biotin on a linker: ado-ado).
Parameters: key: below the threshold = too weak to quantify, mostly under pKd 3.1 to 4

Binder	pKd
TNSRHGETTV [FZD2, Q14332]	3.99
PPGKHLVTEV [KCNA7, Q96RP8]	below the threshold

What follows are binders tested against TJP1_3, Q07157 (assay: holdup assay). Details: plain residues with an end cap or a label only (N-terminal biotin on a linker: ado-ado).
Chain of TJP1_3, Q07157 (Q07157 416-512): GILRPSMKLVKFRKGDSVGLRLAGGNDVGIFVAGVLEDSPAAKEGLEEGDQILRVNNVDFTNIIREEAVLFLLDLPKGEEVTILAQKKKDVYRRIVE
Parameters: key: below the threshold = too weak to quantify, mostly under pKd 3.1 to 4

Binder	pKd
TNSRHGETTV [FZD2, Q14332]	below the threshold
PPGKHLVTEV [KCNA7, Q96RP8]	below the threshold

The binders below were run against T9, MPP6, Q9NZW5 (assay: holdup assay). Details: plain residues with an end cap or a label only (N-terminal biotin on a linker: ado-ado).
Parameters: key: below the threshold = too weak to quantify, mostly under pKd 3.1 to 4

Binder	pKd
TNSRHGETTV [FZD2, Q14332]	below the threshold
PPGKHLVTEV [KCNA7, Q96RP8]	below the threshold

Each binder was assayed against LAP2, Q96RT1 (assay: holdup assay). Details: plain residues with an end cap or a label only (N-terminal biotin on a linker: ado-ado).
Chain of LAP2, Q96RT1 (Q96RT1 other isoform, or with tags, fused parts or gaps): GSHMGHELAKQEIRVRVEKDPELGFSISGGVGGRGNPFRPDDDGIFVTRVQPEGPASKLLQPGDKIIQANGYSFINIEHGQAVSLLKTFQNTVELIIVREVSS
Parameters: key: below the threshold = too weak to quantify, mostly under pKd 3.1 to 4

Binder	pKd
TNSRHGETTV [FZD2, Q14332]	4.02
PPGKHLVTEV [KCNA7, Q96RP8]	4.39

These binders were tested against FRMPD2_2, Q68DX3 (assay: holdup assay). Details: plain residues with an end cap or a label only (N-terminal biotin on a linker: ado-ado).
Chain of FRMPD2_2, Q68DX3 (Q68DX3 944-1038): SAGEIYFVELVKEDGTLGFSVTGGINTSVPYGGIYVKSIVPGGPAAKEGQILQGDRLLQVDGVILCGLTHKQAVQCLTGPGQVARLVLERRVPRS
Parameters: key: below the threshold = too weak to quantify, mostly under pKd 3.1 to 4

Binder	pKd
TNSRHGETTV [FZD2, Q14332]	3.54
PPGKHLVTEV [KCNA7, Q96RP8]	4.51

The binders below were run against GRID2IP_1, A4D2P6 (assay: holdup assay). Details: plain residues with an end cap or a label only (N-terminal biotin on a linker: ado-ado).
Chain of GRID2IP_1, A4D2P6 (A4D2P6 1-87): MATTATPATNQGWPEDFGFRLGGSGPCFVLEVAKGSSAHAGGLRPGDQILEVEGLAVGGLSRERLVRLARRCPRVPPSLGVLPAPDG
Parameters: key: below the threshold = too weak to quantify, mostly under pKd 3.1 to 4

Binder	pKd
TNSRHGETTV [FZD2, Q14332]	below the threshold
PPGKHLVTEV [KCNA7, Q96RP8]	below the threshold

The binders below were run against T10, DLG3_1, Q92796 (assay: holdup assay). Details: plain residues with an end cap or a label only (N-terminal biotin on a linker: ado-ado).
Parameters: key: below the threshold = too weak to quantify, mostly under pKd 3.1 to 4

Binder	pKd
TNSRHGETTV [FZD2, Q14332]	4.33
PPGKHLVTEV [KCNA7, Q96RP8]	4.21

These binders were tested against T11, LIN7B, Q9HAP6 (assay: holdup assay). Details: plain residues with an end cap or a label only (N-terminal biotin on a linker: ado-ado).
Parameters: key: below the threshold = too weak to quantify, mostly under pKd 3.1 to 4

Binder	pKd
TNSRHGETTV [FZD2, Q14332]	3.82
PPGKHLVTEV [KCNA7, Q96RP8]	3.97

What follows are binders tested against T12, LIN7A, O14910 (assay: holdup assay). Details: plain residues with an end cap or a label only (N-terminal biotin on a linker: ado-ado).
Parameters: key: below the threshold = too weak to quantify, mostly under pKd 3.1 to 4

Binder	pKd
TNSRHGETTV [FZD2, Q14332]	3.85
PPGKHLVTEV [KCNA7, Q96RP8]	below the threshold

The binders below were run against ARHGEF12, Q9NZN5-2 (assay: holdup assay). Details: plain residues with an end cap or a label only (N-terminal biotin on a linker: ado-ado).
Chain of ARHGEF12, Q9NZN5-2 (Q9NZN5 other isoform, or with tags, fused parts or gaps): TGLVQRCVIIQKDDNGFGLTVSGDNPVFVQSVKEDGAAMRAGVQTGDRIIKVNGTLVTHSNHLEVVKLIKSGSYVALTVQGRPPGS
Parameters: key: below the threshold = too weak to quantify, mostly under pKd 3.1 to 4

Binder	pKd
TNSRHGETTV [FZD2, Q14332]	3.57
PPGKHLVTEV [KCNA7, Q96RP8]	5.22
